Test [1] addresses E. coli β clamp (β subunit of DNA polymerase III, dnaN gene product) (E. coli) (UniProt P0A988). In words: ITC, peptide 400 µM into β ring 30 µM, 25 °C. For orientation: Isothermal titration calorimetry measures the heat released or taken up as one component is titrated into another.
For test [2] the target is unchanged. In words: SPR competition, β ring on immobilised P1.
Test [3] shares this target. In words: ITC, peptide 400 µM into β ring 30 µM, 25 °C, second experiment.
The target of test [4] is E. coli β clamp (β subunit of DNA polymerase III, dnaN gene product), N-tagged (E. coli) (UniProt P0A988). As to the kind of experiment: SPR competition on immobilised P1; ΔG = -RT ln Ki.
The target is the same in test [5]. In words: SPR competition (Biacore 3000): β ring 0.25 µM mixed with the challenger, injected on immobilised P1. (In SPR one partner is held on a chip, and binding of the other changes the refractive index at the surface.)
The target is the same in test [6]. As to the kind of experiment: ITC, peptide 400 µM into β ring 20 or 30 µM, 25° C.
The target is the same in test [7]. In words: SPR competition on immobilised P1.
Test [8] shares this target. As to the kind of experiment: ITC.
The target is the same in test [9]. As to the kind of experiment: ITC / SPR.
For test [10] the target is unchanged.
Test [11] has as its target T1, E. coli β clamp (β subunit of DNA polymerase III, dnaN gene product) (E. coli, UniProt P0A988 1-366).
T1 construct: Expressed in BL21 E. coli from pET15b with an N-terminal tag; also called β ring; β protein; not shown: N-terminal tag from plasmid pET15b ('N-tagged protein', purified on Ni-NTA)
In words: SPR competition, concentration of peptide that challenges 50% of the binding of β ring to P1.

For test [12], the target named is T1, E. coli β clamp (β subunit of DNA …). In words: from ITC data; compared residues pClF/diClF.
The target is the same in test [13]. As to the kind of experiment: from ITC data; compared residues pBrF/diClF.
Test [14] has the same target. In words: ITC, peptide 400 µM into β ring 20 µM, 25 °C.
The target is the same in test [15]. As to the kind of experiment: from ITC data; compared residues F/diClF.
The target is the same in test [16]. As to the kind of experiment: from ITC data; compared residues pMeF/diClF.
For test [17] the target is unchanged. In words: SPR competition, β ring on immobilised P1.
Test [18] shares this target. In words: ITC, peptide 400 µM into β ring 20 µM, 25 °C, second experiment.
Test [19] has the same target. In words: from ITC data; compared residues F/pMeF.
The target is the same in test [20]. In words: from ITC data; compared residues pBrF/pClF.
The target is the same in test [21]. In words: from ITC data; compared residues pMeF/pClF.
For test [22] the target is unchanged. In words: from ITC data; compared residues F/pClF.
The target is the same in test [23]. As to the kind of experiment: from ITC data; compared residues L/Cha.
Test [24] shares this target. In words: ITC, peptide 400 µM into β ring 30 µM, 25 °C.
For test [25] the target is unchanged. In words: ITC, peptide 400 µM into β ring 30 µM, 25 °C, second experiment.
For test [26], the target named is T2, E. coli β clamp (β subunit of DNA polymerase III, dnaN gene product) (E. coli, UniProt P0A988 1-366).
T2 construct: Homodimeric ring; N-tagged protein expressed in BL21 E. coli and purified on Ni-NTA and MonoQ; also called β ring; β protein; not shown: N-terminal tag from the pET15b plasmid
As to the kind of experiment: SPR competition: peptide with β ring injected on immobilized P1.

Test [27] concerns the target T2, E. coli β clamp (β subunit of DNA …). The description is as above. This is another data set of the same source.
Test [28] has the same target. As to the kind of experiment: SPR competition; ΔG = -RT ln Ki.
Test [29] addresses T1, E. coli β clamp (β subunit of DNA …). In words: from ITC data; compared residues pMeF/pBrF.
Test [30] shares this target. As to the kind of experiment: from ITC data; compared residues F/pBrF.

Square brackets hold non-standard residues; d marks the D form. Phe(3,4-Cl2) = N[C@@H](Cc1ccc(Cl)c(Cl)c1)C(=O)O; Phe(4-Br) = N[C@@H](Cc1ccc(Br)cc1)C(=O)O; Phe(4-Cl) = N[C@@H](Cc1ccc(Cl)cc1)C(=O)O; Phe(4-Me) = Cc1ccc(C[C@H](N)C(=O)O)cc1; hCha = N[C@@H](CCC1CCCCC1)C(=O)O; Cha = N[C@@H](CC1CCCCC1)C(=O)O

By Kd is commonly meant the free concentration of one partner at which half of the binding sites on the other are occupied at equilibrium, for simple one-to-one binding. The term IC50 denotes the point on the concentration scale where inhibition reaches its midpoint. In general, Ki refers to a measure of affinity in units of concentration, obtained from inhibition or displacement. A lower Ki goes with tighter binding.

E. coli β clamp (β subunit of DNA polymerase III, dnaN gene product) (E. coli), sequence (P0A988 whole entry): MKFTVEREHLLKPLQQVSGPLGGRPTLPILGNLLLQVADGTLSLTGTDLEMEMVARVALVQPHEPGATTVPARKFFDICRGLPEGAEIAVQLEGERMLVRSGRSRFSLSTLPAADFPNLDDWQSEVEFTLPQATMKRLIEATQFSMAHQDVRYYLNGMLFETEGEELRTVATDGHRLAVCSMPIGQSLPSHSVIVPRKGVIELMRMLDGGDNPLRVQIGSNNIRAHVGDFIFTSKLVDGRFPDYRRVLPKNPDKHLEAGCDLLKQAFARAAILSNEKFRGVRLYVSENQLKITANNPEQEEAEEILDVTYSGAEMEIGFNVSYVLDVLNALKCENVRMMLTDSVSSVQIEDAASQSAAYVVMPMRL
E. coli β clamp (β subunit of DNA polymerase III, dnaN gene product), N-tagged (E. coli), sequence (P0A988 whole entry): as above

In test [1], “P3 (RQLVLF) (peptide; other documents disagree on this pair)” came in with a Kd of 2820 nM, a ΔG of -7.5 kcal/mol, a ΔH of -5.77 kcal/mol and a ΔS of 6.05 cal/mol/deg. The molecule further registered an IC50 in [2] of 8620 nM. In test [3], the Kd is 2320 nM, the ΔG is -7.6 kcal/mol, the ΔH was -5.7 kcal/mol and the ΔS was determined as 6.6 cal/mol/deg. The same molecule showed a ΔG in test [4] of -7.04 kcal/mol. Besides, the IC50 in test [5] was 8620 nM.
In test [6], P14 (Ac-Q Cha DL diClF) (peptide) gave a Kd of 65 nM. In test [7], this molecule gave an IC50 of 70 nM, a fold increase against P1 of 115 fold, a fold increase against P6 of 15 fold and a fold increase against the full PolIV enzyme of 4 fold. In test [8], the Kd was 60 nM. This molecule gave a fold increase in binding against P6 in test [9] of 10 to 15 fold. Besides, in [10], the IC50, Pol IV based biochemical assay (inhibition of β dependent Pol IV elongation) worked out at 125 nM.

B1: P14 (Ac-Gln-Cha-Asp-Leu-(3,4-di-Cl)Phe-OH) (peptide)
peptide: Ac-Q[Cha]DL[Phe(3,4-Cl2)]-OH
SMILES: CC(=O)N[C@@H](CCC(N)=O)C(=O)N[C@@H](CC1CCCCC1)C(=O)N[C@@H](CC(=O)O)C(=O)N[C@@H](CC(C)C)C(=O)N[C@@H](Cc1ccc(Cl)c(Cl)c1)C(=O)O
notes: also called AcQChaDLdiClF; Ac Q Cha D L diClF
B1 came in with an inhibition constant (Ki) in test [11] of 85 nM. Besides, the “ΔΔG (ΔGj - ΔGi) of P14 against P12” value in test [12] was -0.2 kcal/mol. The “ΔΔG (ΔGj - ΔGi) of P14 against P13” value in test [13] is -0.52 kcal/mol. In [14], the dissociation constant (Kd) was found to be 73 nM, the ΔG is -9.6 kcal/mol, the ΔH is -18.9 kcal/mol and the ΔS is -30.8 cal/mol/deg. The “ΔΔG (ΔGj - ΔGi) of P14 against P7” value in [15] is -0.8 kcal/mol. In addition, in test [16], the “ΔΔG (ΔGj - ΔGi) of P14 against P11” value is -1.05 kcal/mol. This molecule showed a half-inhibitory concentration (IC50) in test [17] of 77 nM. In addition, in test [18], the dissociation constant Kd was 55 nM, the ΔG was -9.8 kcal/mol, the ΔH was -18.1 kcal/mol and the ΔS is -27.6 cal/mol/deg.

B2: P11 (Ac-Gln-Cha-Asp-Leu-pMePhe-OH) (peptide)
peptide: Ac-Q[Cha]DL[Phe(4-Me)]-OH
SMILES: CC(=O)N[C@@H](CCC(N)=O)C(=O)N[C@@H](CC1CCCCC1)C(=O)N[C@@H](CC(=O)O)C(=O)N[C@@H](CC(C)C)C(=O)N[C@@H](Cc1ccc(C)cc1)C(=O)O
notes: also called AcQChaDLpMeF; Ac-Q Cha DL pMeF
For the molecule B2, in test [14], the equilibrium dissociation constant (Kd) is 401 nM, the ΔG was -8.6 kcal/mol, the ΔH was -14.8 kcal/mol and the ΔS is -20.4 cal/mol/deg. Moreover, in test [17], the IC50 was found to be 260 nM. In test [18], this molecule showed a Kd of 362 nM, a ΔG of -8.6 kcal/mol, a ΔH of -14.4 kcal/mol and a ΔS of -19 cal/mol/deg. In addition, in test [19], the “ΔΔG (ΔGj - ΔGi) of P11 against P7” value was found to be 0.25 kcal/mol.

B3: P12 (Ac-Gln-Cha-Asp-Leu-pClPhe-OH) (peptide)
peptide: Ac-Q[Cha]DL[Phe(4-Cl)]-OH
SMILES: CC(=O)N[C@@H](CCC(N)=O)C(=O)N[C@@H](CC1CCCCC1)C(=O)N[C@@H](CC(=O)O)C(=O)N[C@@H](CC(C)C)C(=O)N[C@@H](Cc1ccc(Cl)cc1)C(=O)O
notes: also called AcQChaDLpClF; Ac-Q Cha DL pClF
On to B3, for which the “ΔΔG (ΔGj - ΔGi) of P12 against P13” value in test [20] is -0.32 kcal/mol. The “ΔΔG (ΔGj - ΔGi) of P12 against P11” value in test [21] was -0.85 kcal/mol. In test [14], this molecule yielded a Kd of 89 nM, a ΔG of -9.6 kcal/mol, a ΔH of -15 kcal/mol and a ΔS of -18.1 cal/mol/deg. Besides, in [17], the half-maximal inhibitory concentration (IC50) came out at 160 nM. For the same molecule, in [18], the dissociation constant (Kd) is 122 nM, the ΔG was -9.4 kcal/mol, the ΔH was -14.3 kcal/mol and the ΔS was -16.3 cal/mol/deg. For the same molecule, the “ΔΔG (ΔGj - ΔGi) of P12 against P7” value in [22] was -0.6 kcal/mol.

B4: P7 (Ac-Gln-Cha-Asp-Leu-Phe-OH) (peptide)
peptide: Ac-Q[Cha]DLF-OH
SMILES: CC(=O)N[C@@H](CCC(N)=O)C(=O)N[C@@H](CC1CCCCC1)C(=O)N[C@@H](CC(=O)O)C(=O)N[C@@H](CC(C)C)C(=O)N[C@@H](Cc1ccccc1)C(=O)O
notes: also called AcQChaDLF; Ac Q Cha D L F
As to B4, the affinity in test [11], expressed as Ki, was 170 nM. Further, the “ΔΔG (ΔGj - ΔGi) of P7 against P6” value in test [23] is -0.66 kcal/mol. In [24], the Kd was found to be 246 nM, the ΔG was -8.9 kcal/mol, the ΔH is -21.3 kcal/mol and the ΔS was -41.2 cal/mol/deg. For the same molecule, the 50% inhibitory concentration (IC50) in test [17] stood at 170 nM. Moreover, in test [25], binding was characterised by a dissociation constant (Kd) of 222 nM, the ΔG is -8.9 kcal/mol, the ΔH is -20.5 kcal/mol and the ΔS was -38.5 cal/mol/deg.

B5: P8, Ac-Gln-hCha-Asp-Leu-Phe-OH (peptide)
peptide: Ac-Q[hCha]DLF-OH
SMILES: CC(=O)N[C@@H](CCC(N)=O)C(=O)N[C@@H](CCC1CCCCC1)C(=O)N[C@@H](CC(=O)O)C(=O)N[C@@H](CC(C)C)C(=O)N[C@@H](Cc1ccccc1)C(=O)O
notes: X stands for the non-natural residue; also called Ac Q hCha DLF
With B5, the 50% inhibitory concentration (IC50) in test [26] and in test [27] was 82800 nM throughout. Also, the ΔG in [28] is -5.74 kcal/mol.

B6: P13 (Ac-Gln-Cha-Asp-Leu-pBrPhe-OH) (peptide)
peptide: Ac-Q[Cha]DL[Phe(4-Br)]-OH
SMILES: CC(=O)N[C@@H](CCC(N)=O)C(=O)N[C@@H](CC1CCCCC1)C(=O)N[C@@H](CC(=O)O)C(=O)N[C@@H](CC(C)C)C(=O)N[C@@H](Cc1ccc(Br)cc1)C(=O)O
notes: also called AcQChaDLpBrF; Ac-Q Cha DL pBrF
For B6, the “ΔΔG (ΔGj - ΔGi) of P13 against P11” value in [29] was -0.53 kcal/mol. In test [14], the affinity, expressed as Kd, was 136 nM; the ΔG was -9.3 kcal/mol; the ΔH was -18.1 kcal/mol; the ΔS is -29.3 cal/mol/deg. Besides, in test [17], the 50% inhibitory concentration (IC50) worked out at 96 nM. In test [18], this molecule gave a Kd of 167 nM, a ΔG of -9.1 kcal/mol, a ΔH of -15.2 kcal/mol and a ΔS of -20.2 cal/mol/deg. Besides, the “ΔΔG (ΔGj - ΔGi) of P13 against P7” value in [30] is -0.28 kcal/mol.

The values are drawn from patent publication US20140287989A1 (CENTRE NATIONAL DE LA RECHERCHE SCIENTIFIQUE, published 2014).
